{
  "source": "the supplement of paper PMC12042874",
  "note": "± gives the uncertainty stated by the source.",
  "data": [
    {"experiment": "amyloid nucleation score (Sup35N fusion, yeast selection) (log enrichment); library NNK3; higher = more nucleation; inactive = no reads after selection", "method_in_brief": "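Peptides of 20 random codons fused to Sup35N were expressed in psi-negative yeast, induced 24 hours with 100 μM copper sulfate, then grown 7 days at 30°C on medium lacking adenine and uracil. Input and output plasmid inserts were Illumina-sequenced. Nucleation score is the DiMSum log enrichment of output over input reads, centred on the mode score of non-aggregating sequences, excluding sequences with under 100 input reads. Random libraries had three technical output replicates.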", "values": [
      {"substance": "RWSLYLGRSRMKLRATVHSF", "amyloid nucleation score": "inactive"},
      {"substance": "CHASEWACYATLFLQT", "amyloid nucleation score": "inactive"},
      {"substance": "DIQTLPKLDLVFFVWAILEL", "amyloid nucleation score": "inactive"},
      {"substance": "DAIEKD", "amyloid nucleation score": "inactive"},
      {"substance": "YLGGVRSII", "amyloid nucleation score": "-0.402 ± 1.9"},
      {"substance": "NYGYRRPVMILPVHR", "amyloid nucleation score": "inactive"},
      {"substance": "YVVRN", "amyloid nucleation score": "inactive"},
      {"substance": "LLTYHTSGYSCWSEG", "amyloid nucleation score": "inactive"},
      {"substance": "CANQGGCIICDATYQCVIIA", "amyloid nucleation score": "0.649 ± 0.14"},
      {"substance": "VHLNCCTVLKEVRLFT", "amyloid nucleation score": "0.78 ± 0.26"},
      {"substance": "NSWVNSPFNLS", "amyloid nucleation score": "inactive"},
      {"substance": "NIDNMSMVRILFNT", "amyloid nucleation score": "1.44 ± 0.11"},
      {"substance": "PMYTMRVWLMMSS", "amyloid nucleation score": "inactive"},
      {"substance": "IGRAIVHWYWFSSL", "amyloid nucleation score": "inactive"},
      {"substance": "TYHWLNRGYRMGSLENRLLK", "amyloid nucleation score": "inactive"},
      {"substance": "FIVFTDF", "amyloid nucleation score": "inactive"},
      {"substance": "PVDKCRCGGWNLSHLHKLSS", "amyloid nucleation score": "-0.615 ± 1.7"},
      {"substance": "RFSFVTRFRYREQLPLVR", "amyloid nucleation score": "0.068 ± 0.82"},
      {"substance": "QINSSLDMMRHTFCSEGYAV", "amyloid nucleation score": "inactive"},
      {"substance": "SPHLLDWSKIAFLVSHMPHS", "amyloid nucleation score": "inactive"},
      {"substance": "WFDNRGLSFPYVYLLREHGK", "amyloid nucleation score": "1.13 ± 0.11"},
      {"substance": "AYNFEHFPDETSAQGHVY", "amyloid nucleation score": "inactive"},
      {"substance": "EMSFY", "amyloid nucleation score": "inactive"},
      {"substance": "YGLSGDKFRWM", "amyloid nucleation score": "inactive"},
      {"substance": "YGIAMTQTIVSCSEIESKLR", "amyloid nucleation score": "inactive"},
      {"substance": "PYFQFGSSCE", "amyloid nucleation score": "inactive"},
      {"substance": "SQSLPFVCA", "amyloid nucleation score": "inactive"},
      {"substance": "DFDILGSDHISWWYGRFDKT", "amyloid nucleation score": "inactive"},
      {"substance": "QWMQRTW", "amyloid nucleation score": "inactive"},
      {"substance": "HWMVSCYFSVRLRARLSRRG", "amyloid nucleation score": "inactive"},
      {"substance": "RATKEGKRLDML", "amyloid nucleation score": "-0.725 ± 1.9"},
      {"substance": "APVCQWATKARIKCAHWRRT", "amyloid nucleation score": "inactive"},
      {"substance": "VVCLLALKIYDMLCRCQDVV", "amyloid nucleation score": "inactive"},
      {"substance": "WHTSSQVSEGLEHAYVCKFE", "amyloid nucleation score": "inactive"},
      {"substance": "IKAGTEVVFRTSDLFMTMLQ", "amyloid nucleation score": "inactive"},
      {"substance": "CFGRSGPW", "amyloid nucleation score": "inactive"},
      {"substance": "MLIQPWSSSRNYVPPAEYW", "amyloid nucleation score": "inactive"},
      {"substance": "MYDLDHSFCTLLTEVRALMK", "amyloid nucleation score": "-0.396 ± 1.4"},
      {"substance": "AWGSVYVALVWRWNFRCVR", "amyloid nucleation score": "inactive"},
      {"substance": "CIPPCW", "amyloid nucleation score": "inactive"},
      {"substance": "RDVVCRRMRTRVLSSHAPPR", "amyloid nucleation score": "inactive"},
      {"substance": "TMLDLGDKYVMLFEQVDSFF", "amyloid nucleation score": "inactive"},
      {"substance": "FLVRRGCP", "amyloid nucleation score": "inactive"},
      {"substance": "YYFPWLYAKYSVVIINDMEP", "amyloid nucleation score": "2.64 ± 0.05"},
      {"substance": "YLTMYDSNDIFTIVATVMST", "amyloid nucleation score": "inactive"},
      {"substance": "NFYRFNIVRNNVLM", "amyloid nucleation score": "inactive"},
      {"substance": "LIGLMWFVMWFFMARMREIN", "amyloid nucleation score": "inactive"},
      {"substance": "WYPLGRPRVLINYETPTSVM", "amyloid nucleation score": "inactive"},
      {"substance": "LNGRYSLLWR", "amyloid nucleation score": "inactive"},
      {"substance": "RSAPCC", "amyloid nucleation score": "inactive"},
      {"substance": "NAFNL", "amyloid nucleation score": "inactive"},
      {"substance": "MCYQNMR", "amyloid nucleation score": "inactive"},
      {"substance": "HKCMCVY", "amyloid nucleation score": "inactive"},
      {"substance": "FNLQL", "amyloid nucleation score": "0.325 ± 0.57"},
      {"substance": "NVRGEENVKNILSGVL", "amyloid nucleation score": "inactive"},
      {"substance": "YNSSTTVIDFTF", "amyloid nucleation score": "inactive"},
      {"substance": "LIARALFNSKWQDTSLSL", "amyloid nucleation score": "inactive"},
      {"substance": "HLFINL", "amyloid nucleation score": "inactive"},
      {"substance": "PYCNRWFSDRGSWDVHRSWV", "amyloid nucleation score": "inactive"},
      {"substance": "KRLAKWGTMYLV", "amyloid nucleation score": "inactive"},
      {"substance": "VRMTAIFLNLKVWQSNMFVV", "amyloid nucleation score": "inactive"},
      {"substance": "FCGNLEATYRSRFRSNAHSA", "amyloid nucleation score": "0.698 ± 0.3"},
      {"substance": "IFVLVYNISSNTGNYSIGFV", "amyloid nucleation score": "0.934 ± 0.15"},
      {"substance": "AYLIRIGVIRLFLTLCCG", "amyloid nucleation score": "inactive"},
      {"substance": "TVRFEGIGSHVRHTFCALDF", "amyloid nucleation score": "inactive"},
      {"substance": "SNCFPLSFWIR", "amyloid nucleation score": "-0.88 ± 1.3"},
      {"substance": "WGFRRT", "amyloid nucleation score": "inactive"},
      {"substance": "HRFSVWSEYCILIFRLQHRP", "amyloid nucleation score": "inactive"},
      {"substance": "MMHILNGRSEVAPFYSTPIS", "amyloid nucleation score": "inactive"},
      {"substance": "SNSVIW", "amyloid nucleation score": "inactive"},
      {"substance": "SFWCRVSHLSRDTFMDVRFM", "amyloid nucleation score": "inactive"},
      {"substance": "LPHNIVLAKKTLKV", "amyloid nucleation score": "inactive"},
      {"substance": "TNDFVNV", "amyloid nucleation score": "inactive"},
      {"substance": "FYWGAFNPYFVLIGILAYYT", "amyloid nucleation score": "inactive"},
      {"substance": "LSIVQD", "amyloid nucleation score": "-0.413 ± 1.1"},
      {"substance": "IYRLKDRLDDLVSHVDICVV", "amyloid nucleation score": "inactive"},
      {"substance": "LSSFIFCFSLYAVLTMGVVH", "amyloid nucleation score": "inactive"},
      {"substance": "YSNSELSGECRLLHKITSD", "amyloid nucleation score": "inactive"},
      {"substance": "AIWLCCQLLLM", "amyloid nucleation score": "2.63 ± 0.066"},
      {"substance": "SLSLSIIRAVDFWDMVRGLN", "amyloid nucleation score": "inactive"},
      {"substance": "ETDCRSAQSIC", "amyloid nucleation score": "inactive"}
    ]}
  ]
}
